Values joined by “and” are separate entries in the source; they are usually repeats but may differ in a detail not shown here. Identical values can stand only once.
Target: GroEL14 as used with the substrate proteins NanA and DapA (E. coli) (UniProt P0A6F5)
Assay: native MS; CE-MS; 6 µM GroEL14 with 6 or 12 µM substrate monomers, denatured in 6.5 M GuHCl and 9 mM DTT and diluted 30-fold into GroEL14 buffer pH 7.5 (200 mM GuHCl, 0.3 mM DTT left); no ATP, no GroES; BGE 50 mM ammonium acetate pH 6.7

Chain of N-acetyl neuraminic acid aldolase, denatured monomer (NanA) (P0A6L4 2-297): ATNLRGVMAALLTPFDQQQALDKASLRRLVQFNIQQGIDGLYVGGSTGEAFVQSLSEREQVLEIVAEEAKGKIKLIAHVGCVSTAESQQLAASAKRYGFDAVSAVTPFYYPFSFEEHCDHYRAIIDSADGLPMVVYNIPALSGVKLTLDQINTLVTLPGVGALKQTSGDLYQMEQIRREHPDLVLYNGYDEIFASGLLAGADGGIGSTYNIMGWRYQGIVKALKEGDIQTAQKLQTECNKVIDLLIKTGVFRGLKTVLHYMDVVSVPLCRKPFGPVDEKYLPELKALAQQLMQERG

## N-acetyl neuraminic acid aldolase, denatured monomer (NanA) (from UniProt P0A6L4 2-297) (enzyme)
  share of the total signal intensity, GroEL14-NanA1 complex: 10%
  share of the total signal intensity, GroEL14-NanA2 complex: 90%
  stoichiometry N (NanA monomers per GroEL14): 1 and 2

Reference: publication PMC10953559
